From patent US20140127200A1

Target: HER2 expressed on the surface of breast carcinoma cells (BT-474; SK-BR-3) (human) (UniProt P04626)
Experiment: cell-based or functional assay

ADCC on SK-BR-3 cells with human PBMCs (specific release), IC50: 0.067 nM
Substance: HER-con4(H) (…® with the 2xcon4 MRD fused to the heavy chain) (bispecific antibody)
